# The supplement of paper PMC7125110
# ± gives the standard error. For some of these results: Fewer inactive variants are shown than the library holds.
# B1: glmS ribozyme (parent)
# chain: AUAAAAGCGCCAGAACUACAGAAAUGUAGUUGACGAGGAGGAGGUUUAUCGAAUUUUCGGCGGAUGCCUCCAAA
# How the values were obtained:
# Details in all cases: with glucosamine-6-phosphate
# [1] = variants of: B1; assay: kcat; higher = faster cleavage; RNA array
# How it was run: (§1)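 Tiles of sequenced MiSeq chips were imaged over ~14 h at 37 °C. On them, barcoded ribozyme variants had been transcribed in situ by E. coli RNA polymerase and were tracked via a hybridised Cy3 probe while glucosamine-6-phosphate (40 μM to 10 mM) in HEPES/KCl/Mg(OAc)2 buffer flowed in. Per-tile medians, normalised to baseline and to non-cleaving reference variants, were fit to one- or two-exponential decays for kobs, and weighted Michaelis–Menten fits gave kcat and KM.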
# [2] = variants of: B1; assay: KM; higher = weaker cofactor use; RNA array
# How it was run: as §1
# [3] = variants of: B1; assay: self-cleavage kobs at 2500 uM GlcN6P; higher = faster cleavage; RNA array
# How it was run: as §1
# [4] = variants of: B1; assay: self-cleavage kobs at 10000 uM GlcN6P; higher = faster cleavage; RNA array
# How it was run: as §1
# [5] = variants of: B1; assay: self-cleavage kobs at 40 uM GlcN6P; higher = faster cleavage; RNA array
# How it was run: as §1
# [6] = variants of: B1; assay: self-cleavage kobs at 160 uM GlcN6P; higher = faster cleavage; RNA array
# How it was run: as §1
# [7] = variants of: B1; assay: self-cleavage kobs at 640 uM GlcN6P; higher = faster cleavage; RNA array
# How it was run: as §1
variant,measurement,setting,value
AUAAAAGCGCCAUAACUACAGAAAUGUAGUUGACGAGGAGUAGGUUUAUCGAAUUUUCGGCGGAUGCCUCCAAA,kcat,[1],7.91e-05 ± 6.7e-06 s⁻¹
same,KM,[2],4150 ± 890 µM
same,self-cleavage kobs at 2500 uM GlcN6P,[3],3.07e-05 ± 8.6e-06 s⁻¹
same,self-cleavage kobs at 10000 uM GlcN6P,[4],5.57e-05 ± 8.2e-06 s⁻¹
AUAAAAGCGCCAGAAGUACAGAAAUGUAGUUGACGAGGAGGAGGUUUAUCGAAUUUGCGGCGGAUGCCUCCAAA,kcat,[1],2.25e-05 ± 2.8e-06 s⁻¹
same,self-cleavage kobs at 40 uM GlcN6P,[5],< 1e-05 s⁻¹
AUAAAAGCGCCAGAACUACAGAAAUGUAGUUGACGAGGAGGAGGUUUAUCGAAUUUGCGGCGGAUGCCUACAAA,kcat,[1],4.31e-05 ± 1.5e-05 s⁻¹
same,self-cleavage kobs at 160 uM GlcN6P,[6],3.33e-05 ± 1.3e-05 s⁻¹
same,self-cleavage kobs at 640 uM GlcN6P,[7],4.1e-05 ± 1.7e-05 s⁻¹
same,self-cleavage kobs at 2500 uM GlcN6P,[3],6.82e-05 ± 1.9e-05 s⁻¹
AUAAAGGCGCUAGAACUACAGAAAUGUAGUUGACGAGGAGGAGGUUUAUCGAAUUUUCGGCGGAUGCCUCCAAA,kcat,[1],2.61e-05 ± 3.3e-06 s⁻¹
same,self-cleavage kobs at 40 uM GlcN6P,[5],< 1e-05 s⁻¹
same,self-cleavage kobs at 160 uM GlcN6P,[6],< 1e-05 s⁻¹
same,self-cleavage kobs at 2500 uM GlcN6P,[3],2.57e-05 ± 1.2e-05 s⁻¹
same,self-cleavage kobs at 10000 uM GlcN6P,[4],2.38e-05 ± 7.5e-06 s⁻¹
AUAAAAGCGCCGGAACUACAGAAAUGUAGUUGACGAGGAGGAGGUUUAUCGAAUUUUCUGCGGAUGCCUCCAAA,kcat,[1],1e-05 ± 1.9e-06 s⁻¹
AUAAAAGCGCCAGAACUACAGAAAUGUAGUUGACGAGGAGGAGGUUUAUCGAAUUUUAGGCGGGUGCCUCCAAA,kcat,[1],0.000405 ± 6.2e-05 s⁻¹
same,KM,[2],1920 ± 510 µM
same,self-cleavage kobs at 160 uM GlcN6P,[6],3.91e-05 ± 1.1e-05 s⁻¹
same,self-cleavage kobs at 640 uM GlcN6P,[7],0.0001 ± 1.5e-05 s⁻¹
same,self-cleavage kobs at 2500 uM GlcN6P,[3],0.000214 ± 2.8e-05 s⁻¹
same,self-cleavage kobs at 10000 uM GlcN6P,[4],0.000399 ± 8.1e-05 s⁻¹
AUAAAAGCGCCAUAACUACAGAAAUGUAGUUGACGAGGAGGAGGUUUAUCGAAUUUUCGGCGGAUGGCUCCAAA,kcat,[1],< 1e-05 s⁻¹
same,self-cleavage kobs at 40 uM GlcN6P,[5],< 1e-05 s⁻¹
AUAAAAGCGCCAGAACUACAGAAAUGUAGUCGACGAGGAGGAGGUUUAUCGAAGUUUCGGCGGAUGCCUCCAAA,kcat,[1],0.00413 ± 0.0012 s⁻¹
same,KM,[2],1770 ± 710 µM
same,self-cleavage kobs at 40 uM GlcN6P,[5],0.000143 ± 2.5e-05 s⁻¹
same,self-cleavage kobs at 160 uM GlcN6P,[6],0.000283 ± 4.9e-05 s⁻¹
same,self-cleavage kobs at 640 uM GlcN6P,[7],0.00116 ± 0.00017 s⁻¹
same,self-cleavage kobs at 2500 uM GlcN6P,[3],0.00211 ± 0.0004 s⁻¹
same,self-cleavage kobs at 10000 uM GlcN6P,[4],0.00388 ± 0.00065 s⁻¹
AUAAAAGCGCCAGAACUACAGAAAUGUAGUUGACGAGGAUGAGGUUUUUCGAAUUUUCGGCGGAUGCCUCCAAA,kcat,[1],7.9e-05 ± 9.5e-06 s⁻¹
same,KM,[2],3220 ± 1300 µM
same,self-cleavage kobs at 40 uM GlcN6P,[5],< 1e-05 s⁻¹
same,self-cleavage kobs at 2500 uM GlcN6P,[3],3.77e-05 ± 1.6e-05 s⁻¹
same,self-cleavage kobs at 10000 uM GlcN6P,[4],5.95e-05 ± 8.8e-06 s⁻¹
AUAAAAGCGCCAGAACUACAGAAAUGUAGUUGACGAGGAGGAGGUUUAUCGAAUUUUCGGGGGAUGCCUCAAAA,kcat,[1],1.34e-05 ± 3.8e-06 s⁻¹
AUAAAAGCGCCAGAACUACAGAAAUGUAGUUGACGAGGAGGAGGUUUAUCGAAUGUUCGGCGGGUGCCUCCAAA,kcat,[1],0.0303 ± 0.0073 s⁻¹
same,KM,[2],1980 ± 600 µM
same,self-cleavage kobs at 40 uM GlcN6P,[5],0.000723 ± 0.00013 s⁻¹
same,self-cleavage kobs at 160 uM GlcN6P,[6],0.00204 ± 0.00033 s⁻¹
same,self-cleavage kobs at 640 uM GlcN6P,[7],0.0075 ± 0.00091 s⁻¹
same,self-cleavage kobs at 2500 uM GlcN6P,[3],0.0149 ± 0.0036 s⁻¹
same,self-cleavage kobs at 10000 uM GlcN6P,[4],0.0308 ± 0.0088 s⁻¹
AUAAAAGCGCCAGAACUACAGAAAUGUAGUUGACGAGGAGGAGGUUUAUCGAAGUGUCGGCGGAUGCCUCCAAA,kcat,[1],0.016 ± 0.0043 s⁻¹
same,KM,[2],2790 ± 950 µM
same,self-cleavage kobs at 160 uM GlcN6P,[6],0.000796 ± 0.00017 s⁻¹
same,self-cleavage kobs at 640 uM GlcN6P,[7],0.00338 ± 0.00059 s⁻¹
same,self-cleavage kobs at 2500 uM GlcN6P,[3],0.00688 ± 0.0019 s⁻¹
same,self-cleavage kobs at 10000 uM GlcN6P,[4],0.013 ± 0.0058 s⁻¹
AUAAAAGCGCCAGAACUACAGAAAUGUAGUUGACGAGGAGGAGGUUUAUCGAAUUAUUGGCGGAUGCCUCCAAA,kcat,[1],0.00027 ± 2.5e-05 s⁻¹
same,KM,[2],3350 ± 650 µM
same,self-cleavage kobs at 640 uM GlcN6P,[7],5.03e-05 ± 1.6e-05 s⁻¹
same,self-cleavage kobs at 2500 uM GlcN6P,[3],0.000108 ± 1.9e-05 s⁻¹
same,self-cleavage kobs at 10000 uM GlcN6P,[4],0.000208 ± 3.2e-05 s⁻¹
AUAAAAGCGCCAGAACUACAGAAAUGUAGUUGGCGAGCAGGAGGUUUAUCGAAUUUUCGGCGGAUGCCUCCAAA,kcat,[1],< 1e-05 s⁻¹
same,self-cleavage kobs at 40 uM GlcN6P,[5],< 1e-05 s⁻¹
same,self-cleavage kobs at 160 uM GlcN6P,[6],< 1e-05 s⁻¹
AUAAAAGCGCCAGAACUACAGAAAUGUAGUUUACGAGGAGGAGGUAUAUCGAAUUUUCGGCGGAUGCCUCCAAA,kcat,[1],0.000102 ± 7.4e-06 s⁻¹
same,KM,[2],4100 ± 670 µM
same,self-cleavage kobs at 2500 uM GlcN6P,[3],3.94e-05 ± 1.1e-05 s⁻¹
same,self-cleavage kobs at 10000 uM GlcN6P,[4],7.21e-05 ± 1.5e-05 s⁻¹
AUAAAAGCGCCAGACCUACAGAAAUGUAGUUGACGAGGAGGAGGUUCAUCGAAUUUUCGGCGGAUGCCUCUAAA,kcat,[1],0.000301 ± 5.9e-06 s⁻¹
same,KM,[2],867 ± 47 µM
same,self-cleavage kobs at 640 uM GlcN6P,[7],0.000129 ± 2.7e-05 s⁻¹
same,self-cleavage kobs at 2500 uM GlcN6P,[3],0.000228 ± 4.9e-05 s⁻¹
same,self-cleavage kobs at 10000 uM GlcN6P,[4],0.000275 ± 4.5e-05 s⁻¹
AUAAAAGCGCCAGAACUACAGAAAUGUAGCUGACGAGGAGGAGGUUUAUCGAAUUUUCAGCGGAUGCCUCCAAA,kcat,[1],< 1e-05 s⁻¹
AUAAAAGCGGCAGAACUACAGAAAUGUAGUUGACGAGGAGGAGGUUUAUUGAAUUUUCGGCGGAUGCCUCCAAA,kcat,[1],< 1e-05 s⁻¹
same,self-cleavage kobs at 40 uM GlcN6P,[5],< 1e-05 s⁻¹
same,self-cleavage kobs at 10000 uM GlcN6P,[4],< 1e-05 s⁻¹
AUAAAAGCGCCAGAACUACAGAAAUGUAGUGGACGAUGAGGAGGUUUAUCGAAUUUUCGGCGGAUGCAUCCAAA,kcat,[1],2.76e-05 ± 6.9e-06 s⁻¹
AUAAAAGCGCCAGAACUACAGAAAUGUAGUUGACGAGGAGGAGGUUCAUCGAAUUUUCGGCGGAUGCCUCGAAA,kcat,[1],0.000277 ± 6.2e-05 s⁻¹
same,self-cleavage kobs at 640 uM GlcN6P,[7],0.000116 ± 1.9e-05 s⁻¹
same,self-cleavage kobs at 2500 uM GlcN6P,[3],0.000253 ± 3.8e-05 s⁻¹
same,self-cleavage kobs at 10000 uM GlcN6P,[4],0.000197 ± 5.1e-05 s⁻¹
